Publication PMC3709441 (The Biochemical journal, 2009)

What was measured:
Assay in all cases: ELISA
RnPP5 TPR E29A (rat) = target: RnPP5 TPR E29A (rat)
RnPP5 TPR E56A (rat) = target: RnPP5 TPR E56A (rat)
RnPP5 TPR E76A (rat) = target: RnPP5 TPR E76A (rat)
RnPP5 TPR R113A (rat) = target: RnPP5 TPR R113A (rat)
RnPP5 TPR R117A (rat) = target: RnPP5 TPR R117A (rat)
RnPP5 TPR Y80A (rat) = target: RnPP5 TPR Y80A (rat)
[1] = target: HsHop TPR1 (amino acids 1-118) (human, UniProt P31948 1-118)
[2] = target: HsHop TPR2A (amino acids 223-352) (human, UniProt P31948 223-352)
[3] = target: T1, HsPP5 TPR (human protein phosphatase 5 TPR domain, amino acids 1-181) (human, UniProt P53041 1-181)
T1 sequence (looked up): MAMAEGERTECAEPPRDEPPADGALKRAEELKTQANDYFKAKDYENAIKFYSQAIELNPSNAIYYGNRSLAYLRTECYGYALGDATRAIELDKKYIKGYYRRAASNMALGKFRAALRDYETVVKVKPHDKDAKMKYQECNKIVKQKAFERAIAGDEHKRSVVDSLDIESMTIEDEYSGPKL

RnPP5 TPR I63A (rat) = target: RnPP5 TPR I63A (rat)
RnPP5 TPR K40A (rat) = target: RnPP5 TPR K40A (rat)
RnPP5 TPR R74A (rat) = target: RnPP5 TPR R74A (rat)
[4] = target: T2, RnPP5 TPR wild type (rat protein phosphatase 5 TPR domain) (rat)
T2 sequence (P53042 whole entry, looked up): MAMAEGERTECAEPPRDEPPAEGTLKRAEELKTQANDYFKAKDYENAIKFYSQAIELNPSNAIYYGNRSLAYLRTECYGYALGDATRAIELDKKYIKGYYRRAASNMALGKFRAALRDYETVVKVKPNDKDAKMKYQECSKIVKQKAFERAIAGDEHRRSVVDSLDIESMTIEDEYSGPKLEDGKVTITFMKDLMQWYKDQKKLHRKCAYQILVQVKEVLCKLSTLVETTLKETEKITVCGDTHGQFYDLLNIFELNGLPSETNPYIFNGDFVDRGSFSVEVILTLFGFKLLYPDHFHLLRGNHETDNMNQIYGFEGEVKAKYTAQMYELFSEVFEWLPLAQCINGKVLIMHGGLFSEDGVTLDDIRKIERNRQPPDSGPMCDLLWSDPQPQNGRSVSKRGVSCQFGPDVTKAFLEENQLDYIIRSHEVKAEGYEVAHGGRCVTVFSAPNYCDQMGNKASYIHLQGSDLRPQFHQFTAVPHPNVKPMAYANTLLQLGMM

RnPP5 TPR R101A (rat) = target: RnPP5 TPR R101A (rat)
[5] = target: HsHop TPR2B (amino acids 353-477) (human, UniProt P31948 353-477)
RnPP5 TPR K32A (rat) = target: RnPP5 TPR K32A (rat)

Sequence of HsHop TPR2A (amino acids 223-352) (P31948 223-352): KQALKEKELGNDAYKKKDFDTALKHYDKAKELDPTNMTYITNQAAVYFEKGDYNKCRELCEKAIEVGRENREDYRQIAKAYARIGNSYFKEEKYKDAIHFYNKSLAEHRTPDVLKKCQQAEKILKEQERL
Sequence of HsHop TPR2B (amino acids 353-477) (P31948 353-477): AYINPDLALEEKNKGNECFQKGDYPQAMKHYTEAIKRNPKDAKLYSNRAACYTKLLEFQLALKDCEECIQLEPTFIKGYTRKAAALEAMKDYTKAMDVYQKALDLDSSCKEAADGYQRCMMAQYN
Sequence of HsHop TPR1 (amino acids 1-118) (P31948 1-118): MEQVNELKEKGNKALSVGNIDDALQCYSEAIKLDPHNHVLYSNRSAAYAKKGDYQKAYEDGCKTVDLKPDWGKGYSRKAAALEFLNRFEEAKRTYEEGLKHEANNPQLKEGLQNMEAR

Molecule | A405 (ELISA) (absorbance at 405 nm) (RnPP5 TPR E29A (rat)) | A405 (ELISA) (absorbance at 405 nm) (RnPP5 TPR E56A (rat)) | A405 (ELISA) (absorbance at 405 nm) (RnPP5 TPR R113A (rat)) | A405 (ELISA) (absorbance at 405 nm) (RnPP5 TPR R117A (rat)) | A405 (ELISA) (absorbance at 405 nm) (RnPP5 TPR Y80A (rat)) | A405 (ELISA) (absorbance at 405 nm) (RnPP5 TPR R74A (rat)) | A405 (ELISA) (absorbance at 405 nm) (RnPP5 TPR R101A (rat)) | also measured
hsp90 C-12 control phage, displayed peptide … (the 12 residues located at the C-terminus of hsp90) | 1.06 | 1.08 | 0.72 | 1.06 | 1.09 | – | – | A405 (ELISA) (absorbance at 405 nm) (RnPP5 TPR E76A (rat)): 1.12
NAHLRLEMNDVD [T7 phage #7 (VD phage with a -4 methionine), displayed peptide NAHLRLEMNDVD] | – | – | – | – | – | – | – | A405 (ELISA) [1]: 0.32 absorbance at 405 nm; A405 (ELISA) [2]: 0.04 absorbance at 405 nm; A405 (ELISA) [3]: 0.56 absorbance at 405 nm
RFQQMNQSWDVD [T7 phage #1 (VD phage #1), displayed peptide …] | – | – | 0.84 | 1 | 1.08 | 0.75 | – | A405 (ELISA) (absorbance at 405 nm) (RnPP5 TPR I63A (rat)): 0.84; A405 (ELISA) (absorbance at 405 nm) (RnPP5 TPR K40A (rat)): 1.01; A405 (ELISA) (absorbance at 405 nm) [4]: 1.14
KHTVADDELLFG [LFG phage #2, displayed peptide …] | 0.75 | – | 0.74 | 0.78 | – | 0.75 | 0.54 | –
GDDDTSRMEEVD | – | – | – | – | – | – | – | A405 (ELISA) [5]: 0.24 absorbance at 405 nm
RLLSADDDVLFG [LFG phage #1, displayed peptide …] | – | 0.78 | 0.66 | 0.8 | – | – | 0.53 | A405 (ELISA) (absorbance at 405 nm) (RnPP5 TPR K32A (rat)): 0.74
